This assay concerns the target GFP-tagged Pak1 (human) (UniProt Q13153). Put plainly: cell-based or functional assay.

Chain of GFP-tagged Pak1 (human) (Q13153 whole entry A26V/E503D): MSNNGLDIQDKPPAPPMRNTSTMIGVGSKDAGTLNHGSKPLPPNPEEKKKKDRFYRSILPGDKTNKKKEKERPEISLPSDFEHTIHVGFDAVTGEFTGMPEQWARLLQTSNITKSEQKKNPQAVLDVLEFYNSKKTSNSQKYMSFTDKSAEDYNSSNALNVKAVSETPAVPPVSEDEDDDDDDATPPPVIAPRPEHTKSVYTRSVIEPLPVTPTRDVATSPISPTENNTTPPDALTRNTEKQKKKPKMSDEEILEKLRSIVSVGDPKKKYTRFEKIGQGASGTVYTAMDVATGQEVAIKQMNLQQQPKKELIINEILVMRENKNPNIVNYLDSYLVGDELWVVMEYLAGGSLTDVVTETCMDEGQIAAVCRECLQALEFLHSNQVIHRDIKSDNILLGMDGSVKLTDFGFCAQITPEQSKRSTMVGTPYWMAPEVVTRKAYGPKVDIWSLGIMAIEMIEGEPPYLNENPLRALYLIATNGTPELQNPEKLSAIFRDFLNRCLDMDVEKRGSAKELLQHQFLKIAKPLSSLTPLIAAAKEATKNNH

As to “RFP-DLC1-1-66 (from UniProt P61273 1-66)”, the vesicle formation (macropinocytosis), confocal microscopy of cotransfected SKBR3 cells (% of the transfected cells) was greater than 80.
